# Test results reported in PMC8096250.
# Target: Nhp2 (W);Cbf5;Nop10;Gar1 (Saccharomyces cerevisiae;Saccharomyces cerevisiae;Saccharomyces cerevisiae;Saccharomyces cerevisiae) (UniProt P33322+Q6Q547+P28007)
# Assay: smFRET
# Conditions: substrate RNA binding to the reconstituted H5 RNP; substrate is an analogue RNA; sequence as assayed not given; smFRET with immobilized 3'-biotin RNA; smFRET buffer not in the material (RNP reconstitution for activity assays: 12.5 mM Tris/HCl pH 8.0, 250 mM NaCl, 30 °C)
substance,measurement,value
H5 U61-donor snoRNA with acceptor-labeled H5 substrate RNA,binding signal (% of RNPs substrate bound),37
